Laboratory results reported in a protein production outcome set (Wang et al. 2014).

Test: label from the status in PepcDB records

Sequence	protein production
MSILMLFGLATLRSATYGENEQLFTRQIVWDIAGFSLMFLVLFIKDRTIRNFSIILYVFSVVLLAALLVKGTPIGGSKRWFRVMGFSFQPSDFAKLSLIVLLPYLLEKRWFWRSFFLTVVPAVLIFLEPDLGTTLSVGLIWLFAVLASNVNKKPLVILLILVLVFLPVFFFFGLKDYQRARILSFLNPEEYGESYSYNVLQSIHAIGAGGLFGAGYMKGKANLMGYVPVSYTDFIVSVIGEEFGFIGIVFLLSLFGLLFFEVSRWILNVKDEYWEILMVSACGLIWFHVFENVSMNLGLLPVTGVPLPFISYGGTSTLVFSILVGLILKGIALARVEKKL	failed
MSIPLLEYAPSSQNQRVEGYEVPNEDTPTIYRLAAAIDDADVDAIIWAGYRQIFSEHLIIKSNRQSFLESQLRNRAINVRDFIRGLGKSEVYRTQVADLNSNYRLVDITLKRFLGRAAYNQDEEIAWSIVIGSQGLHGFIDALLDSDEYRENFGDDIVPYQRRRYKDRPFNLVNPRYNAYWRDRQTLNALGGRSFYSARTSGTLTKDDIRRAIPANFMALAGKILTPERNYQRTIASVTSQIKDIKIPDTSREVTTPEVTVKPVAVALPYRYIPGNKTT	failed
MSISISSIPDLTTVRARHPEAIAEAAARRVRRPLIGDSGRLMIVAADHPARGALGVGDRGLAMANRADLLERLCTALSRPGVDGVLATADVLEDLLLLGVLENKVVMGSMNRGGLAGAAFEMDDRFTGHRAEDIARLRFDAGKLLLRIDYDDPGSLTTMEASARAVDAMAARELPLFVEPFISRRIDGRVRNDLSAEAVTRSVAIASGLGGTSAYTWLKLPVTRNPDDMAEVLETSTLPAVLLGGDIGGSPADQTAAYERWRKALRLPTVQGMVVGRSLLYPAGGSVEEAVDTAVGLL	failed
MSISSHDVGRTYPTTDPYLVTAEKIRELATALGDNAPAYRGDDPIAPPTFAMVLASRAWEALFDDEQLDLRLEHMIHTDQSFHWIRPLHEGDEVTAALTITSVRTRGNTDIIGINVSLDHVDGEHLGNATSTLWHTRPEGNA	failed
MSKDGLSNDQVSSMKEAFMLFDTDGDGKIAPSELGILMRSLGGNPTESQLKSIITTENLSSPFDFNRFLDLMAKHLKTEPFDRQLRDAFKVLDKEGTGFVAVADLRHILTSIGEKLQPSEFDEWIKEVDVGSDGKIRYEDFIARMVAK	failed
MSKDSNKIIEQSREIGISIIMPLYNVEEVILETLESIHEQTFDSYEVLLIDDGSTDKTIEIVTEYIKDKPRFKLYTQPNGGPASARNHGLRLAIGMYICFVDSDDILPNYSLQLMYDGAISTGAKLITGATKRFNSEGEWFIPMHIQYNIAKPGMKTLLKNPELFYSIGPCAKLYHHSLIDGVFFPENIRYGEDQPFVLHALLQAKDIYTVEKVVYYYRLRDGESQSLTQSVDKDPIRILKSVFQIFDYGEEELKKNNTDYEVALKYYQRVSSVELWGALRAAIESKKSENQKIAFTMTLDWLKTKSDDFLNIIPSFRYFLLFSSIERVRYITKDNKENYRNLIGYLWSRQGEEAKIAFRKTYPIPMKAALQIIENNNWRDARKISFKFIVRRKFKAPILIRKISRGIIFRIATLMPRKKNQVILATERSTTLEGNLLAIYDYMFYNNMPQKVYVFLRKNRNWFEMFQLYYTLGRTKTIVLDDYYNKIYGLKFNKNTHVVQSWHATGAFKKFGFSALEGTDANTEEFETRAHSPYTDVLVSSEGIIPEYMEAFRKQANQIKPIGVPRTDVFFDDEYVNYTKEKYMKMYPQLRDKKILLYAPTFRGGPNERFNYSVVLDIAALKKELGDTHILILKFHPVIKNVSFNVEEDDPFILNLTLNNDINDLMLFSDALITDYSSVIFEFSLMNKPIYFFAYDIDDYLDERGFYFDYKATIPGEVFRDTPSLIEAVKSGLYNYDELEIFKKKFVGSLDGNSTKRFVETYIGKANEKVKDILEHHHHHH	not failed
MSKEMRSRLFSILKVVFAVALFSIVVFTLYKELSHINIKETIQSFGKINRVWLVALFVIGGASIIVLSMYDVILAKSLNLKISLLKTIRVGYIVNALNAVVGFGGFIGASVRFLFYKNATDDKRALLHTISIVLISMLTGLSLLSILVVIHVFDVSHLFTPYPWIKWLMYVVALFLPVFVIFTILRPVQENQKLLGVYCTIVSSIEWLVAALVLYMALTMVGVHVPISIFMGIFIIAALSGLISFIPGGFGTFDLVVLLGLKHLNIDEESIVLGLLLYRFAYYLFPVLVALILSTFEFRGTAKRYWEDARILVPVRDMTSLLSSYQKDIIARAPSFSIAILLMFTSLLFFLNNLTIIYDGLYDPNHYIYYIIVSVHTCACLLLLLNVVGVYRLSKRAILFSIISIILIFIVTAYTYASFILLSWLVVMLILLFIFYRRARVIKRPFRYLKLCLSFIMGALVLYINHIVIASTFYTLDIYHIEIDTSILRYYFWFTILLVAVIVGLIVWWFEYRYRISNTREDTKICASIVKQYGGNYLSHLMYSGDKKFFINENEDAFIMYRYQRNAYIVLGDPIGNPQSFYSLLESFYQEAEYLGYDIIFYQVTDRNMSLYHSFGNQFFKLGEEAVIDLNEFKISGKKKRGLRATLNKLDDLKYTFEVIEPPFTQALITDLKTISDEWLADKKEMHFSVGSFNESYLSKAPIAIIKDSDGLIIAFCTLMPTYYKGTISVDLIRWKPDCTLPLMDGLYLNMLLWSQKQNYQHFNMGMATLSNVGQLPYSFYGERIAGRVFEHFNGLYRFQGLRKYKEKFNPNWEPRFLVYRKRHSLWLSMIKVMRVIRKHK	failed
MSKHKFMIYFLTTTLVLPTFTTSIAHAEDTNEDDKMKSSSTQEEQTNHNEDVNDNNTNEASQPDDTQSDNTSSEAPTKEDSKNKIKREKSKSSNTSSEEKDDDNTSVSRSHQKRDKDTNNTYRTPLSPIFDATHSSGLPASNFLNPDLYQNGFSLTHLIASLFNFDSDISDYEQPASTNETDDDTHSTNEQDTDSQDQDQTEHSASSSDTTNREHDDVQQSSEKANQSDKTSRQDEIDTKQQSTANQDKDDASVSKALDAIDDFVSDETDDDKDNQGSNNTDTTNHQSYNDDTSTDSKNDSSKTSSSDSNSLSESALDTVLDKYSEDAKKTHQDFESSKKDNETNTSKGEKTKNNTTKASNPQLPTKKELEHKTTPAQSFEDDFKQSNTRSTSLFQTLPQLNGSDVTDGDITVVENKGTRDFIKSIAKDAHKIGQDKDLYASVMIAQAILESSSGNSTLAQAPNYNLFGIKGSYKGQSVNFNTLEAGSDNSMFSINAGFRKYPSTKASLEDYADLIKNGIDGNPTIYKPTWKHEAIDYRDATRHLSRTYATDPNYATKLNSLIKHYHLTDFDKKKMPDLDRYAKQTSSGEDASGSEFKSFEITDSSSPYPQGQCTWYVYERVQQFGKKVGSDWGDAHNWDNRAESDNYDVSQTPSTHSAVVFEAGQAGAHDIYGHVAFVEKVNKDGSIVISESNVKGLGIVSYRTIDASTAEDLHYIEPK	failed
MSKIEDIRKFYARLMAANAASSDPRLEQVFATVPREAFLGPGPWTIVAGSGRVTTPSADPAHIYQNVLVALDADKGINNGEPFLHAMWIGKLAPKPGEAVTHVGAGTGYYSAVLARLVSPGGTVTAFELEGRLADLARKNLEIYGNATVIHGDAVTRPLPPSDIIYVNAGVVAPPVGWLKALRPGGRMIFPWRPSERVPLAVMVTRTEKGFACDPFMRSWFIPCIGASVADLAAKIPTPEQATRSRSIWLTQHKAPDRTATAIFGDVWFSTKDVRAKPGS	failed
MSKIEIFEAAGCCATSSVVVSDEAVKWNASAEWAKKHGVNIQRYSLAKNPQQFLNTPVIRAFLNTSGMESLPATLLDGQLVMAGKLPSREDIARWAG	not failed
MSKIFNEELAVIEAAAIAYLTAFNRADIPAVIATYTDDGVLMGPGRPAAVGKDELAEVYLSVFETVGFDMAYEIKEVVQTSADWAFVRSATEGTETNKATGVVTPAAYQELFLLRKSATGSWQTARYCTSKISP	not failed
MSKITFKDIYIDGNKITEDSRKAIYLLPPQPLKYASNTWIYKTMPTMNQWLKDIEVQKKMHLNQSSYHLSFSFPANEKIDEVLLEKIRELGFQIGVLELYVIEAKALKELSRKRDVDIQLVSSNNINDYLHVYDAFARPFGDSYANMVKQHIYSSYNLDDIERLVAYVNHQPVGIVDIIMTDKTIEIDGFGVLEEFQHQGIGSEIQAYVGRMANERPVILVADGKDTAKDMYLRQGYVYQGFKYHILKENI	not failed
MSKKKGLSAEEKRTRMMEIFSETKDVFQLKDLEKIAPKEKGITAMSVKEVLQSLVDDGMVDCERIGTSNYYWAFPSKALHARKHKLEVLESQLSEGSQKHASLQKSIEKAKIGRCETEERTRLAKELSSLRDQREQLKAEVEKYKDCDPQVVEEIRQANKVAKEAANRWTDNIFAIKSWAKRKFGFEENKIDRTFGIPEDFDYID	failed
